Experiment: yeast display, Sf9 membrane polyspecificity reagent, FACS + sequencing; frameworks hold sequencing errors
Method in brief: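 Nanobodies came from a synthetic yeast display library in Saccharomyces cerevisiae BJ5465, induced with galactose for 36–48 hours and stained for 1 hour at 4 °C with 10% biotinylated, detergent-solubilized Sf9 membrane reagent. Cells were enriched on streptavidin microbeads and then FACS-sorted, with low and high (top ~1%) gates set on anti-HA fluorescence for expression and streptavidin fluorescence for reagent binding. Each polyreactivity label reflects the gate a clone came from. Genes were amplified by colony PCR, sequenced by MiSeq 2 × 250 and filtered by CDR length.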

Row | Sequence | polyreactivity (PSR sort gate)
1 | QVQLVESGGGLVQAGGSLRLSCPASGRTFHYYTLGWYRQSPGKERELVARISLGVGSTYYADSVKGRFTISRDIAKNTVDLQMNSLKPEDTAVYYCNAVWYKSVVKGVYGRVDWGQGTQVTVSS | low polyreactivity
2 | QVQLVESGGGLVQAGGSLRLSCAASGITFVPNAMGWYRQAPGKERELVARIDNGVSTNYADSVKGRFTISRDNAKNTVYLQMNSLKPEDTAVYYCAVGYWDSRYRYDWPNSDYWGQGTQVTVSS | low polyreactivity
3 | QVQLVESGGGLVQAGGSLRLICAASGYILWKAMGWYRQAPGKERELVAAIRFRVGSTSYADSVKGRFTISRDNAKNTVYLQMNSLKPVYTAVYYCTARWWVIRPYQRHDYWGQGTQVTVSS | low polyreactivity
4 | QVQLVESGGGLVQAGGSLRLSCAASGSILVSYAMARYSQAPGKERELVAAISGNSDSTYYADSVKGRFTISRDNAKNTVYLQMNSLKPEDTAVYYCAKEGGNGYDYWGQGTQVTVSS | low polyreactivity
5 | QVQLVESGGGLVQAGGSLRLSCAASGIYYNAMGWYRHAPGKERELVAAITTGDRTNYADSVKGRFTISRDNAKNTVYLQMNSLKPEDTAVYYCNAVVERLSSTARDFAYDYWGQGTQVTVSS | low polyreactivity
6 | QVQLVESGGGLVQAGGSLRLSCAASGSIFASNAMGWYRQAPGKERELVAAITDSGSTNYADSVKGRFTISRDNAKNTVYLQMNSLKREDTAVYYCDWSYYVWRRYRVARYDSWGQGTQVTVSS | low polyreactivity
7 | QVQLVDSGGGLVQAGGSLRLSCAASGRIFYAYAMGGYRQAPGKERELVARISASGGNTYYADSVKGRFTISRDNAKNSVYLQMNSLKPEDTAVYYCNKLFWYGRQYDYWGQGTQVTVSS | high polyreactivity
8 | PVQLVESGGGLVQAGGSLRLSCAASGSTFRFYTMGWYRQAPGKERELVAAISGSGGSTYYADSVKGRFTISRDNAKNTVYLQMNSLIPEDPAVYFCAADKSRNASHRGYWGQGTQVTVSS | low polyreactivity
9 | QVQLVESGGGLVQAGGSLRLSCAASGSIFPYYAMGWYRQAPGKERELVAAISWSGTSTYYADSLKGRFTISRDNAKNTVYLQMNSLKPEDTAVYYCAASAVGTNHYGYWNESDYWGQGTQVTVSS | low polyreactivity
10 | QVQLVESGGGLVQAGGSLRLSCAASGFIFPYDAMGWYSQAPGNERELVAAITSSGGRTYYADSVQGRFTISRDNAKNTVYFQMNSLKPEDTAVYYCAARGAPPAYGYWGQGTQVTVSS | high polyreactivity
11 | QVQLVESGGGLVQAGGSLRLSCAASGSTFQGNAMGWYRQAPGKERELVAAISTSGGRTRYADSVKGRFTISRDKAKNTVYLQMNSLKPEDTAVYHCATTYWYGKRPKMYYWGQGTQVTVSS | high polyreactivity
12 | QVQLVESGGGLVQAGGSLSLSCAASGSTFTEYAMGWDRQAPGKERELVAGISSDGSTKYADSVKGRFTISRDNAMNTVYLQMNSLKTEDTAVYYCYIVQSYAKYDYWGQGTQVTVSS | low polyreactivity
13 | QDQLVESGGGLVQAGGSLRLSCAASAIIFYYYAMGSYRQAPGKERELVAAISSSGGRTRYADSVKGRVTISRDNAKNTVYLLMNRLKPEDTAVYYCAAEFIRGYGESYDYWGQGTQVTVSS | low polyreactivity
14 | QVQLVESGGGLVQAGGSLRLSCAASGRTFGYNALGWYRQAPGKERELVAAITRGGITHYADSVKGRFTISRDNAKNTVYIQKNSLKPEDTAGYYCAKRGPYYTDDEYYWGQGTQVTVSS | low polyreactivity
15 | QVQLVESGGGLVQAGGSLRLSCAASGHIFFYYTMGWYRQAPGKERELVAGITIGGSTNYADSVKGRFTISRDNAKNTVYLQMNSLKPEVTAVYYCARTVYGARSYDYWGQCTQVTVSS | low polyreactivity
16 | QVQLVESGGGLVQAGGSLRLSCAASGSIFGFNAMGWYRQAPGKERELVASISSSGDSTYYADSVKGRFTISRDNAKNTVYLLMNSLKPEDTAVYYCATEGRTDYNREMEYWGQGTQVTVSS | low polyreactivity
17 | QVQLVESGGGLVQAGGSLRLSCAASGSIFSQYAMGWYRQAPGKERELVAAITYGGGSTYYADSVKGRFTISRDNAKNTVYFQMNSLKPEDTAVYYCAKEFKYWGYPYDYWGQGTQVTVSS | low polyreactivity
18 | QVQLVESGGGLVQAGGSLRLSCAASGSIFGGYAMGWYRQAPGNERELVAAITYSAGNTYYADSVKGRFTISRDNAKNTVYLKMKSLKPEDTAVYYCAARTYRGPQYQYGNNYWGQGTQVTVSS | high polyreactivity
19 | QVQLVESGARIVQAGGSLRLSCAAYGSTFGRYGMGWYRQAPGKERELVAAISRAGGTNYADSVKGRITISRDNAKNTVYLQMNSLKPEDTAVYYCNARWYYVLYDYWGQGTQVTVSS | low polyreactivity
20 | QVQLVESGGGLVQAGGILRLSCAASGRIFRYYAMGWYRQAPGKERELVAGITRGGTTNYADSVKGRFTISRDNAKNTVYLQMNSLKPEDTAVYYCAAETRRGIIGYDYWGQGTKVTVSS | high polyreactivity
21 | QVQLVESGGGLVQAGGSLRLICAASGSTFAYNYMGWYRQAPGKERELVPDIRSGGNTNYADSVKGRFTISRDNAKNTVYLQMNSLKPEDTAVYYCATDGYRIDVYHPDYRYDYWGQGTQVTVSS | low polyreactivity
22 | QVQLVESGGGLVQAGGSLRLSGAASGRIFDIYAMGWYRQAPGKERELVAGITSVGSTNYADSVKGRFTISRDYAKNTVYLQMNSLKPEDTAVYYCAADTSVHSEVDYGGQGTQVTVSS | low polyreactivity

Row | Sequence | polyreactivity (PSR sort gate)
23 | QVQLVESGGGLVQAGGSLRLSCAASGSTSVPYTMGWYRQAPGKERELVAAISSSGGTTNYADSVKGRFTISRDNAKNTVYLQMNSLKPEDTAVYYCAAEYYQWVAYSWNEMYYWGQGTQVTVSS | low polyreactivity
24 | QVQLVESGGGLVQAGGSLRLSCAASGSTFFGYDMGWYRQAPGTERELVATINSGGSTYYADSVKGRFTISRDNAKYTVYLQMNSLKPEDTAVYYCAARPSYLYPFDRTGEYDYWGQGTQVTVSS | high polyreactivity
25 | QVQLVESGGGLVQAGGSLRLSCAASGFIFKYYAMGWYRQAPGKERELVATITRRGGSTYYADSVKGRFTISRDNAKNTVYLQMNSLKPEDTAVYYCNVTPDWNARRPFDYWGQGTKVTVSS | high polyreactivity
26 | HVQLVESGGGLVQAGGSLRLSCAASGIIFQRNAMGWYRQAPGKERELVAPISYSDGSTYYADSVKGRFTISRDNAKNTVYLQMNSLKPEDTAVYYCAARRFGRLALYFRFDYWGQGTQVTVSS | low polyreactivity
27 | QVHLVESGGGLVQAGGSLRLSCAASGFIFSYYAMGWYRQAPGKERELVAAISWTGGSTYYADSVKGRFTISRDNAKNTVYLQMNSLKPEDTAVYYCNKYYRAWLLWDYGYWGQGTQVTVSS | high polyreactivity
28 | QVQLVESGGGLVQAGGSLRLSCAASGIIFDYNAMGWYRQAPGKERELVAAITWSGSSTFYADSVKGRFTISHDNAKNTVYLLMNSLKPEDTAVYYCNAEYYWGTYANFDYWGQGTQVTVSS | low polyreactivity
29 | QVQLVESGGGLVQAGGSLRLSCAASGSTFSYNAMGWYRRAPGKERELVAAISWNGDSTYADSVKGRFTISRDNAKNTVYLQMNSLKPEDTAVYYCAKETIITPGRRKSPRYLHGYWGQGTQVTVSS | low polyreactivity
30 | QVQLVESGGGLVQAGGSLRLSCAACGITFPTNMGWYRQAPGKERELVAAIRLSGGSTSYADSVKGRFTISRDNAKNSVYLQMTSLKPEDTAVSSCAAGGYPGGEDYWGQGTQVTVSS | low polyreactivity
31 | QVQLVESGGGLVQAGGSLRLSCAASGSIFSSYAMGWYRQAPGKERELVAAISQNGGSTDYADSVKGRFTISRDKAKNTVYLQMNSLKPEDTAVYYCNAYSVYVRGEYWGQGTQVTVSS | high polyreactivity
32 | QVQLVESGGGLVQAGGSLRLSCAASGSTFIFYSMGCYRQAPGKERELVASITSSSGPTYYADSVKGRFTISRDNAKNTVYLQMNSLKPEDTAVYYCAKRPIRYYHLLRGNYWGQGTQVTVSS | low polyreactivity
33 | QVQLVESGGGLVQAGGSLRLSCAASGYTFRHYVMGWYRQAPGKERELVAAITYSGGSTYYADSVKGRFTISRDNAKNTVYLQMNSLKPEDTAVYYCAARRRRSDPYDFWGQGTQVTVSS | high polyreactivity
34 | QVQLVESGGGLVQAGGSLRLSCAASGSIFRTYAMGWYRQAPGKEREWVAAISSTGGRTYYADSVKGRFTISRDNAKNTVYLQMNSLKPEDTAVYYCAKRYRYITYRYDYWGQGTQVTVSS | high polyreactivity
35 | QVQLVESGGGLVQAGGSLRLSCAASGIILPKYSMGWYRQAPGKERELVAAITRSGGSTYYADSVKGRFTISRDNAKNTVYLQMNSLKPEDTAVYYCAARAANPTRTARYNYWGHGTQVTVSS | high polyreactivity
36 | QVQLHESGRGLVQAGGSLRLSCAASGTISYAGQMGWYRQAPGKEREFVAAIGVGSNTNYADIVKGRYTIIRYNAKNSVYLQIISLKPEDTAVYYCAVGCYAPLGRPFWGQGTQVTVSS | low polyreactivity
37 | QVQLVESGGGLVQAGGSLRLSCAASGITFVHNVMGWYRQAPGKDRELVAAINSGGRTYYADSVKGRFTISRDNAKKTVYLQMNSLKPEDSAVYYCAALGDKRGGGHYWGQGTQVTVSS | high polyreactivity
38 | QVQLVESGGGLVQAGGSLRLSCAASGLTFDAYAMGWYRQAPGKERELVAAISSGGNSYYADSVKGRFTISRDNAKNTVYLQMNSLKPEDTAVYYCNAVGYYKYFFLAYEYDYWGQGTQVTVSS | low polyreactivity
39 | QVQLVESGGGLVQAGGSHRLSCAASGSILEIYAMGWYRQAPGKEREFVASISWDVSSTYYADSVKGRFTISRDNAKNTVYLQMYSLKPEDPAVYYCATSLVWGLYDWYYDLSAAFDYWGQGTQVTVSS | low polyreactivity
40 | QVQLVESGGGLVQAGGSLRLSCAASGSIFYVYAMGWYRQAPGKERELVADITTRDGDTYYADSVKGRFTISRDNAKNTVYLQMNSLKPVDTAVYYCAADLNAYPQRAYDYWGQGTQLTVSS | low polyreactivity
41 | QVQLVESGGGLVQAGGSLRLSCAASGSIFRSYAMGWYRQAPGKEREFVAAISNGGRTSYADSVKGRFTISRDNAKYNVYLQMNSLKPEDTAVYDCNARYSRRAMGYWGQGTQVTVSS | high polyreactivity
42 | QVQLVESGGGLVQAGGSLRLSCAASGSILSLYTMGWYRQAPGKERELVAAITSRGTRTYYADSVKGRFTISRDYAKNTVYLQMNRLKPEDTAVYYCAAGSYYWGQGTQVTVSS | high polyreactivity
43 | QVQLVESGGGLVQAGGSLRLSCADSGSIFAYYARGWYRQAPGKERELVAAISQSGGSTYYAYSVKGRFTISRDTAKNTVYLQMNSLKPEDTAVYYCAARFRYGYTGYRYDYWGQGTQVTVSS | high polyreactivity
